Experiment [1] concerns the target IL-33/ST2 complex (human) (UniProt Q01638). The experiment can be described thus: ITC. For orientation: ITC needs no label: the signal is the heat of the interaction.
The target in experiment [2] is ST2-Fc fusion protein (R&D Systems) (UniProt Q01638). The experiment can be described thus: SPR. A general note: In SPR one partner is held on a chip, and binding of the other changes the refractive index at the surface.
For experiment [3], the target named is ST2 extracellular domain (ectodomain) (human) (UniProt Q01638). The experiment can be described thus: ITC.

In the case of “IL-1 receptor accessory protein (IL-1RAcP) extracellular domain (from UniProt Q9NPH3 21-367)”, in experiment [1], the dissociation constant Kd – broadly, a measure of binding affinity in units of concentration – came to 0.076 µM; the dH is -46 kJ/mol; the stoichiometry N – broadly, the number of molecules, sites or subunits per partner or assembly – is 1. The substance IL-33 E34K (ligand) yielded a dissociation constant Kd in experiment [2] of 0.00311 µM. In experiment [3], “human IL-33 (interleukin-33), recombinant mature IL-1-like form (ligand)” had a stoichiometry N of 1.

The values above are taken from article PMC2766095.
